Assay [1] deals with CMT-93 murine intestinal epithelial cells. Briefly: HRF secretion into culture supernatant, western blot, CMT-93. It is filed as cell-based, mouse. Conditions: stimulated overnight, 20 or 100 ng/ml. On the procedure: (§1) FIGS. 4A-4C show HRF is secreted by various cells. CMT-93 murine intestinal epithelial cells (FIG. 4A) and NIH/3T3 murine fibroblasts (FIG. 4B) and Raw264.7 murine macrophages (FIG. 4C) were stimulated overnight with low (20 ng/ml) and high (100 ng/mL) concentrations of various cytokines. HRF secreted into culture supernatants was detected by western blotting. Med and US denote medium only and supernatant from unstimulated cells, respectively. −DTT and +DTT indicate SDS gels were run under non-reducing and reducing conditions, respectively. Gel portions of containing the 23 kDa HRF monomer are shown except that a larger portion of the non-reducing gel is shown in panel C. Arrow indicates the position of HRF dimer, which disappeared under reducing conditions.
(§2) The following cell lines were cultured in DMEM plus 10% FCS except for U-937 cells which were cultured in RPMI1640 plus 10% FCS: CMT-93 mouse and Caco-2 (with 20% FCS) human intestinal epithelial cell lines; NIH/3T3 mouse fibroblast line; Raw 264.7 mouse and U-937 human macrophage lines; BEAS-2B human bronchial epithelial cell line; 293T human embryonic kidney cell line (obtained from ATCC, Manassas, Va., except for NIH/3T3, which was provided by S. A. Aaronson, NIH). Fibroblast-like stromal cells were cultured from small intestines of BALB/c mice in DMEM/10% FBS. CD4^+ T and B cells were purified from mouse spleens using BD IMag™ Mouse CD4 and B cells enrichment set-DM. Low-density bone-marrow cells were cultured in the presence of 100 ng/ml of stem cell factor (PeproTech) and 100 ng/ml of FLT-3 ligand (R&D Systems) for 4 days, and with 10 ng/mL of IL-5 (R&D Systems) thereafter for 10 days to obtain bone marrow-derived eosinophils (44). Bone marrow cells were cultured in the presence of 20 ng/ml of GM-CSF for 6 days and adherent cells were collected as bone marrow-derived macrophages. Non-adherent cells were further cultured with 5 ng/ml GM-CSF and the non-adherent cells were collected as bone marrow-derived dendritic cells. […]
(Immunoblotting shows a protein as a band on a membrane.)

Assay [2] relates to NIH/3T3 murine fibroblasts and primary intestinal fibroblasts. Briefly: HRF secretion into culture supernatant, western blot, fibroblasts. Conditions: stimulated overnight, 20 or 100 ng/ml. In kind it is cell-based, mouse. On the procedure: as §1
The following cell lines were cultured in DMEM plus 10% FCS except for U-937 cells which were cultured in RPMI1640 plus 10% FCS: CMT-93 mouse and Caco-2 (with 20% FCS) human intestinal epithelial cell lines; NIH/3T3 mouse fibroblast line; Raw 264.7 mouse and U-937 human macrophage lines; BEAS-2B human bronchial epithelial cell line; 293T human embryonic kidney cell line (obtained from ATCC, Manassas, Va., except for NIH/3T3, which was provided by S. A. Aaronson, NIH). Fibroblast-like stromal cells were cultured from small intestines of BALB/c mice in DMEM/10% FBS. […]

The subject of assay [3] is Raw264.7 murine macrophages. Briefly: HRF secretion into culture supernatant, western blot, macrophages. In kind it is cell-based, mouse. Particulars: stimulated overnight, 20 or 100 ng/ml. On the procedure: as §1, §2
In assay [4] the test system is BEAS-2B human bronchial epithelial cells. The assay can be described thus: HRF secretion, western blot, BEAS-2B. It is filed as cell-based. Conditions: combination of HDM and cytokine, 24 h. The text has this:
As lung epithelial cells are exposed to the environment, HRF secretion was studied using BEAS-2B human bronchial epithelial cells. A small amount of HRF was secreted constitutively, but house dust mite allergens induced the secretion of high-molecular-weight HRF species (HMW-HRFs). Various cytokines including epithelial derived cytokines as well as Th2 cytokines and proinflammatory cytokines further enhanced HDM-induced secretion of HMW-HRFs.
Cultured cells were scraped and treated with adenosine and ATP, which should be abundantly present in inflammatory or injured tissues. These conditions induced secretion of HRF monomer, dimer and HMW-HRFs like stimulation with HDM plus cytokines.
Culture supernatants were analyzed by SDS-PAGE under nonreducing (−DTT) and reducing (+DTT) conditions, followed by western blotting for HRF probing. HDM-induced HRF secretion was enhanced not only by Th2 cytokines (IL-4, IL-5, and IL-13), but also by epithelial derived cytokines (IL-25, IL-33, and TSLP) and proinflammatory cytokines (IL-1beta, IL-6 and TNF). med, medium alone; US, unstimulated; HDM, house dust mite; CR, cockroach; RW, ragweed; Af, Aspergillus fumigatus. Arrowhead, HRF monomer.

The test system of assay [5] is c-Kit+ mucosal mast cells of the small intestine. Briefly: Ex vivo mast cell activation test (MCAT). It is filed as cell-based, mouse. Particulars: 15 min at 37° C. Here is the method: FIGS. 2A-2C show mucosal mast cells can be activated ex vivo by antigen. Cells were released with EDTA from small intestines of non-sensitized/OVA challenged (Cont) or OVA-sensitized/OVA-challenged (OVA) mice, and mononuclear cells were selected. The cells were incubated for 15 min at 37° C. with OVA or anti-IgE antibody, and activation of Kit^+ mast cells was measured by flow cytometry (FIG. 2A, FIG. 2B). **, ***: p<0.01, p<0.001 by Student's t-test. (n=2; a representative of 2 independent experiments) (FIG. 2C) Mucosal cells derived from OVA-sensitized/OVA-challenged mice were stimulated with PBS (n=4), OVA (10 ng/ml, n=4) or HRF dimer (100 μg/ml, n=2) in the presence or absence of HRF-2CA (300 μg/ml).
FIGS. 11A-11C show HRF dimer, but not monomer can activate mast cells. (FIG. 11A) Purified dimeric and monomeric HRF expressed in E. coli. Recombinant HRF-[…] was purified first by Histrap HP and then Sephacryl S-200 HR16/60. Two peaks were observed by Sephacryl size fractionation. The first (Fr1) and second (Fr3) peaks contained dimer and monomer, respectively, as shown by SDS-PAGE. Fr1 and Fr3 were used for mast cell stimulation. (FIG. 11B) Cells were released with 10 mM EDTA from small intestines of OVA-sensitized/OVA-challenged mice, and mononuclear cells were selected. The cells were incubated for 15 min at 37° C. with mHRF monomer or dimer (100 μg/ml), or PBS, and Kit^+ mast cell activation (LAMP-1^+) was measured by flow cytometry (n=3). (FIG. 11C) Control experiments indicate an excellent specificity of the assay for HRF multimers. HRF-2CA (2CA) was used as a monomer control (n=2 for each concentration). Note that total concentrations of the 1:9 mixture of dimer:monomer gave almost the same luminescence values as did ten-fold less concentrations of dimer.
Twenty-four hours after the last OVA challenge, mice were sacrificed and small intestines (0.5-15 cm from stomach) were collected. The intestinal tissues were opened longitudinally and washed with PBS. Then, the tissues were incubated with 10 mM EDTA-PBS for 30 min at 37° C. After incubation, the tissues were transferred to 30 ml PBS in 50 ml tubes and vigorously shaken. After washed, the cells were resuspended in 40% Percoll solution and slowly loaded on the top of 75% Percoll solution. The cells were then centrifuged (2000 rpm, 20 min) and lymphocytes were collected. The cells were once centrifuged and resuspended in Tyrode's buffer. Abs (Biotin-anti-CD4 mAb (clone RM4-5), Biotin-anti-CD8 mAb (clone 53-6.7), Biotin-anti-B220 mAb (clone RA3-6B2), Biotin-anti-CD326 mAb (clone G8.8), PE-anti-CD117 (clone 2B8), AlexaFluor647-anti-LAMP-1 mAb (clone 1D4B)) (Biolegend) were added and cells were then stimulated with OVA, anti-IgE (clone RME-1, BioLegend) and recombinant dimeric murine HRF for 15 min at 37° C. After activation, cells were washed and incubated with FITC-streptavidin (Catalog #405202, Biolegend) for 30 min at 4° C. LAMP-1 expression was detected using FACS Calibur. Data were analyzed using FlowJo software.

The subject of assay [6] is mouse bone marrow-derived mast cells (BMMCs). The assay can be described thus: IL-13 production of IgE-sensitized BMMCs stimulated with TNP3-BSA and mHRF dimer. It is filed as cell-based. Particulars: IL-13 ELISA. On the procedure: (§3) FIGS. 33A-33B show HRF dimers enhance IgE/antigen-induced activation of mast cells and basophils. […] IL-13 in culture supernatants was quantified by ELISA. […] Then, HDM allergen (Dermatophagoides farinae at 10 ng/ml) was added to the cells together with FITC-anti-CD63 and APC-anti-CCR3 for 15 min. Expression of CD63 (activation marker) and CCR3 (basophil marker) was analyzed by flow cytometry.
In general terms: An ELISA detects its analyte on a solid surface through an enzyme-linked reagent.

Assay [7] relates to basophils. Briefly: Basophil activation (CD63) in blood of an HDM-sensitized asthmatic. Particulars: 10 μg/ml, 30 min, then HDM allergen 10 ng/ml for 15 min. In kind it is cell-based, human. On the procedure: as §3
The test system of assay [8] is OVA-induced allergic diarrhea. Briefly: Classical tolerance model, oral OVA before sensitization. It is filed as in vivo, mouse. Here is the method:
(§4) In a classical tolerance model, five daily oral administrations of 1 mg OVA from day −11 to day −7 were performed before i.p. OVA/alum-sensitization on days 0 and 7 and followed by ig. OVA (30 mg) gavages on days 14, 21, 28 and 35. In another OIT model, mice were i.d. sensitized with OVA (750 μg) on days 0, 13 and 27 and followed by 9 oral OVA (60 mg) challenges from day 44 to day 60 to induce diarrhea in all mice. Then mice were i.g. treated with hourly increasing amounts of OVA on day 100 (0.1, 0.2, 0.5 mg), on day 101 (1, 2, 5 mg) and on day 102 (10, 20, 60 mg).
Applicant then tested the possibility provoked by the above human data that the level of HRF-reactive IgE is kept low in a desensitized state, using two murine models. In a classic tolerance model (30), five daily oral administrations of 1 mg OVA from day −11 to day −7 (OIT) prevented the OVA-induced development of allergic diarrhea in OVA-sensitized mice (FIG. 7B). By contrast, without oral pretreatment, all OVA-sensitized mice developed allergic diarrhea.

Assay [9] concerns OVA-induced allergic diarrhea. The assay can be described thus: OIT desensitization model, hourly increasing amounts of OVA for 3 days. In kind it is in vivo, mouse. On the procedure:
as §4
Finally, HRF-reactive IgE and HRF-reactive IgG were monitored in another desensitization model, which mimicked the human OIT more faithfully. OVA-sensitized mice were first rendered allergic by OVA challenges and then received hourly increasing amounts of OVA for 3 consecutive days (OIT) after a resting period (FIG. 7D). […] Levels of HRF-reactive IgG and OVA-specific IgG were not changed by OIT (FIG. 7E). In non-sensitized mice, HRF-reactive IgE and HRF-reactive IgG levels were not changed by OIT and OVA-specific IgE and IgG levels were extremely low irrespective of OIT treatment (data not shown).

[10] abbreviates: cells from allergic (OVA-sensitized/OVA-challenged) mice.

In the case of IL-1β, the HRF secretion entry is “strongly induced” in [1] and “enhanced” in assay [2]. For the same molecule, the “secretion of HRF monomer” value in assay [3] was “increased”. Besides, the “HDM-induced HRF secretion” value in [4] is given as “enhanced”.

B1: HRF dimer: recombinant disulfide-linked dimer of mouse histamine releasing factor (protein, UniProt P63028 1-172, looked up)
Translationally-controlled …: MIIYRDLISHDELFSDIYKIREIADGLCLEVEGKMVSRTEGAIDDSLIGGNASAEGPEGEGTESTVVTGVDIVMNHHLQETSFTKEAYKKYIKDYMKSLKGKLEEQKPERVKPFMTGAAEQIKHILANFNNYQFFIGENMNPDGMVALLDYREDGVTPFMIFFKDGLEMEKC
modifications: disulfide-linked dimer
notes: recombinant disulfide-linked dimer of mouse histamine releasing factor
Consider B1, for which the “activation (LAMP-1+) of mucosal mast cells by the substance” value (“activation (LAMP-1+)” below) was “can activate” in [5] (setting [10]) and “activated” in [5] (cells from allergic (OVA-sensitized/OVA-challenged) mice, listed as dimeric HRF). In assay [6], the “IgE/antigen-induced activation of mast cells” value is recorded as “enhance”.

B2: hHRF dimer: human HRF dimer (protein)
chain: MIIYRDLISHDEMFSDIYKIREIADGLCLEVEGKMVSRTEGNIDDSLIGGNASAEGPEGEGTESTVITGVDIVMNHHLQETSFTKEAYKKYIKDYMKSIKGKLEEQRPERVKPFMTGAAEQIKHILANFKNYQFFIGENMNPDGMVALLDYREDGVTPYMIFFKDGLEMEKC
Consider B2, for which the “IgE/antigen-induced activation of basophils (CD63)” value in [7] was “enhance”.

B3: OVA: food allergen of the murine model, also given orally as OIT (protein, UniProt P01012 2-386, looked up)
Ovalbumin: GSIGAASMEFCFDVFKELKVHHANENIFYCPIAIMSALAMVYLGAKDSTRTQINKVVRFDKLPGFGDSIEAQCGTSVNVHSSLRDILNQITKPNDVYSFSLASRLYAEERYPILPEYLQCVKELYRGGLEPINFQTAADQARELINSWVESQTNGIIRNVLQPSSVDSQTAMVLVNAIVFKGLWEKAFKDEDTQAMPFRVTEQESKPVQMMYQIGLFRVASMASEKMKILELPFASGTMSMLVLLPDEVSGLEQLESIINFEKLTEWTSSNVMEERKIKVYLPRMKMEEKYNLTSVLMAMGITDVFSSSANLSGISSAESLKISQAVHAAHAEINEAGREVVGSAEAGVDAASVSEEFRADHPFLFCIKHIATNAVLFFGRCVSP
Turning to B3, the “activation (LAMP-1+)” value in [5] (setting [10]) is reported as “further activated”. Also, in assay [5] (cells from non-sensitized mice), the “activation (LAMP-1+)” value is given as “few mast cells were activated”. For the same molecule, the “OVA-induced development of allergic diarrhea” value in assay [8] (five daily oral administrations of 1 mg from day -11 to day -7) is listed as “prevented”. For the same molecule, in [8] (tolerance-induced vs non-tolerant and non-sensitized mice), the “HRF-reactive IgE levels” value is given as “significantly reduced”. Also, in [9] (before vs after OIT), the “levels of HRF-reactive IgE” value is on record as “lowered”; the “levels of HRF-reactive IgG and OVA-specific IgG” value was “not changed”; the “levels of OVA-specific IgE” value is listed as “did not change”. The “OVA-sensitized/OVA-challenged mice desensitized to the final gavage dose of 60 mg” value in [9] (hourly increasing amounts for 3 consecutive days) is given as 80%.

The values above are taken from patent US20220241369A1, “COMPOSITIONS AND METHODS OF MODULATING INFLAMMATION” (La Jolla Institute for Allergy and Immunology, priority 2018, published 2022).
